Assay results: paper PMC6610696 (Structure (London, England : 1993), 2019)
Where two headings read alike, the source gives them in different places. Square brackets hold non-standard residues; d marks the D form. Ends that are not written are not given here. pS = N[C@@H](COP(=O)(O)O)C(=O)O

B3: ScSen1-NIM2-FAM peptide (peptide)
peptide: DDEDDYTPSISD
modifications: also: 5-FAM label: N-terminal per methods, C-terminal per resources table

Legend:
Assay in all cases: fluorescence polarisation
[1] = target: T1, S. cerevisiae Nrd1 CID (residues 6-151), N-terminal hexa-histidine tag (S. cerevisiae, UniProt P53617 6-151)
T1 sequence (looked up): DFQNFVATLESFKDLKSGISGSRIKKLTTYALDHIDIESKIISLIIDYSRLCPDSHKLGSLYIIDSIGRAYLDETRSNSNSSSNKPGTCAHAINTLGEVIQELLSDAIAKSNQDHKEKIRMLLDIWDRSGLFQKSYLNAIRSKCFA

[2] = target: B3
[3] = target: T1, S. cerevisiae Nrd1 CID (residues …); remark: listed apart in the source

EAEDPYDLNPHPQ [ScSen1-NIM3 peptide]
Kd [1]: 38 µM

B1: Nrd1 CID D70A mutant (domain or fragment, S. cerevisiae, UniProt P53617 6-151, looked up)
chain: DFQNFVATLESFKDLKSGISGSRIKKLTTYALDHIDIESKIISLIIDYSRLCPDSHKLGSLYIIASIGRAYLDETRSNSNSSSNKPGTCAHAINTLGEVIQELLSDAIAKSNQDHKEKIRMLLDIWDRSGLFQKSYLNAIRSKCFA
fold increase in Kd for NIM2 against wild-type CID [2]: 30 fold

B2: Nrd1 CID D70N mutant (domain or fragment, S. cerevisiae, UniProt P53617 6-151, looked up)
chain: DFQNFVATLESFKDLKSGISGSRIKKLTTYALDHIDIESKIISLIIDYSRLCPDSHKLGSLYIINSIGRAYLDETRSNSNSSSNKPGTCAHAINTLGEVIQELLSDAIAKSNQDHKEKIRMLLDIWDRSGLFQKSYLNAIRSKCFA
fold increase in Kd for NIM2 against wild-type CID [2]: 3 fold

B3
Kd [3]: 0.56 µM

B4: Nrd1 CID Y67A mutant (domain or fragment, S. cerevisiae, UniProt P53617 6-151, looked up)
chain: DFQNFVATLESFKDLKSGISGSRIKKLTTYALDHIDIESKIISLIIDYSRLCPDSHKLGSLAIIDSIGRAYLDETRSNSNSSSNKPGTCAHAINTLGEVIQELLSDAIAKSNQDHKEKIRMLLDIWDRSGLFQKSYLNAIRSKCFA
fold increase in Kd for NIM2 against wild-type CID [2]: 90 fold

DDEDDYTPSISD [ScSen1-NIM2 peptide]
binding result [1]: binds

DDEDDYTASISD [ScSen1-NIM2-P2060A peptide]
fold increase in Kd against wild-type NIM2 [1]: ~20 fold

DDEDDYTVSISD [ScSen1-NIM2-P2060V peptide]
fold increase in Kd against wild-type NIM2 [1]: ~20 fold

DDENDYTPSISD [ScSen1-NIM2-D2056N peptide]
fold increase in Kd against wild-type NIM2 [1]: 13 fold

EQEDDYKLPMEYIT [ScSen1-NIM1 peptide]
Kd [1]: 7.6 µM

SPT[pS]PSYSPT[pS]PS [Pol II Ser5P CTD peptide]
Kd [1]: 216 µM
